# From paper PMC3670212 (Cell, 2013)
# Columns and labels:
# [1] = target: E. coli DnaB replicative helicase (E. coli, UniProt P0ACB0 1-471); assay: negative-stain electron microscopy
# [2] = target: the molecule itself; assay: negative-stain electron microscopy
# Chain of E. coli DnaB replicative helicase (P0ACB0 whole entry): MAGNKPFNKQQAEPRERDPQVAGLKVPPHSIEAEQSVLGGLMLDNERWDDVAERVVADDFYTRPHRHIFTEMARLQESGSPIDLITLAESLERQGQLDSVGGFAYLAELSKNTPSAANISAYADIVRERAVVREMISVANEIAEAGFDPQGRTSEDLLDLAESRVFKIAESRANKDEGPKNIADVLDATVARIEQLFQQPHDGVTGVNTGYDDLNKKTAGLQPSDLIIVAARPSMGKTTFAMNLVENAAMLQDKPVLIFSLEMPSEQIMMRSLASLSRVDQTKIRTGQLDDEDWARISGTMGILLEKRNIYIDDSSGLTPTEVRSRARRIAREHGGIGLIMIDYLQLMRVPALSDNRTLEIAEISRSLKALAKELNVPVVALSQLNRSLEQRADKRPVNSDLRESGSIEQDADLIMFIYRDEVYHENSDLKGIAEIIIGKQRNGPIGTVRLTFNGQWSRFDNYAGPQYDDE
binder,measurement,setting,value
"E. coli DnaC helicase loader (natural protein, UniProt P0AEF0 1-245, looked up) MKNVGDLMQRLQKMMPAHIKPAFKTGEELLAWQKEQGAIRSAALERENRAMKMQRTFNRSGIRPLHQNCSFENYRVECEGQMNALSKARQYVEEFDGNIASFIFSGKPGTGKNHLAAAICNELLLRGKSVLIITVADIMSAMKDTFRNSGTSEEQLLNDLSNVDLLVIDEIGVQTESKYEKVIINQIVDRRSSSKRPTGMLTNSNMEEMTKLLGERVMDRMRLGNSLWVIFNWDSYRSRVTGKEY",stoichiometry N,[1],6 DnaC subunits per DnaB hexamer
same,stoichiometry N,[2],6
